Data taken from IntAct's records for PubMed 31515488.

B1: Rho guanine nucleotide exchange factor 39 (Homo sapiens), Q8N4T4 (parent)
chain: MELSCPGSRCPVQEQRARWERKRACTARELLETERRYQEQLGLVATYFLGILKAKGTLRPPERQALFGSWELIYGASQELLPYLEGGCWGQGLEGFCRHLELYNQFAANSERSQTTLQEQLKKNKGFRRFVRLQEGRPEFGGLQLQDLLPLPLQRLQQYENLVVALAENTGPNSPDHQQLTRAARLISETAQRVHTIGQKQKNDQHLRRVQALLSGRQAKGLTSGRWFLRQGWLLVVPPHGEPRPRMFFLFTDVLLMAKPRPPLHLLRSGTFACKALYPMAQCHLSRVFGHSGGPCGGLLSLSFPHEKLLLMSTDQEELSRWYHSLTWAISSQKN
partner: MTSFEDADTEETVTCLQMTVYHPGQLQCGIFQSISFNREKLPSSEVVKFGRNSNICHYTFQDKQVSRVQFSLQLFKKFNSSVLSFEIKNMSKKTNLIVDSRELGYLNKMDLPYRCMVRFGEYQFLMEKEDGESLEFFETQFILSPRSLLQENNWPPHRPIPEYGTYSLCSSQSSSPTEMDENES
B2: Four and a half LIM domains protein 2 (Homo sapiens), Q14192 (parent)
chain: MTERFDCHHCNESLFGKKYILREESPYCVVCFETLFANTCEECGKPIGCDCKDLSYKDRHWHEACFHCSQCRNSLVDKPFAAKEDQLLCTDCYSNEYSSKCQECKKTIMPGTRKMEYKGSSWHETCFICHRCQQPIGTKSFIPKDNQNFCVPCYEKQHAMQCVQCKKPITTGGVTYREQPWHKECFVCTACRKQLSGQRFTARDDFAYCLNCFCDLYAKKCAGCTNPISGLGGTKYISFEERQWHNDCFNCKKCSLSLVGRGFLTERDDILCPDCGKDI
partner: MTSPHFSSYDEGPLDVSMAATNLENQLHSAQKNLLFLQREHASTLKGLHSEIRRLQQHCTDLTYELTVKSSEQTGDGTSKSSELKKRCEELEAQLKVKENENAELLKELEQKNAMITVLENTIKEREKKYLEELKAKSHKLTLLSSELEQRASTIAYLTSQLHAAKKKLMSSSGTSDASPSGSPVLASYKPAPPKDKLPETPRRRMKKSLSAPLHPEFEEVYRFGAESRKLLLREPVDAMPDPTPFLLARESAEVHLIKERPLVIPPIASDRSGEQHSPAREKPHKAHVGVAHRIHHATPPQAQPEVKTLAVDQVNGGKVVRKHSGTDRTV
B3: Notch homolog 2 N-terminal-like protein A (Homo sapiens), Q7Z3S9 (parent)
chain: MCVTYHNGTGYCKCPEGFLGEYCQHRDPCEKNRCQNGGTCVAQAMLGKATCRCASGFTGEDCQYSTSHPCFVSRPCLNGGTCHMLSRDTYECTCQVGFTGKECQWTDACLSHPCANGSTCTTVANQFSCKCLTGFTGQKCETDVNECDIPGHCQHGGTCLNLPGSYQCQCLQGFTGQYCDSLYVPCAPSPCVNGGTCRQTGDFTFECNCLPETVRRGTELWERDREVWNGKEHDEN
partner: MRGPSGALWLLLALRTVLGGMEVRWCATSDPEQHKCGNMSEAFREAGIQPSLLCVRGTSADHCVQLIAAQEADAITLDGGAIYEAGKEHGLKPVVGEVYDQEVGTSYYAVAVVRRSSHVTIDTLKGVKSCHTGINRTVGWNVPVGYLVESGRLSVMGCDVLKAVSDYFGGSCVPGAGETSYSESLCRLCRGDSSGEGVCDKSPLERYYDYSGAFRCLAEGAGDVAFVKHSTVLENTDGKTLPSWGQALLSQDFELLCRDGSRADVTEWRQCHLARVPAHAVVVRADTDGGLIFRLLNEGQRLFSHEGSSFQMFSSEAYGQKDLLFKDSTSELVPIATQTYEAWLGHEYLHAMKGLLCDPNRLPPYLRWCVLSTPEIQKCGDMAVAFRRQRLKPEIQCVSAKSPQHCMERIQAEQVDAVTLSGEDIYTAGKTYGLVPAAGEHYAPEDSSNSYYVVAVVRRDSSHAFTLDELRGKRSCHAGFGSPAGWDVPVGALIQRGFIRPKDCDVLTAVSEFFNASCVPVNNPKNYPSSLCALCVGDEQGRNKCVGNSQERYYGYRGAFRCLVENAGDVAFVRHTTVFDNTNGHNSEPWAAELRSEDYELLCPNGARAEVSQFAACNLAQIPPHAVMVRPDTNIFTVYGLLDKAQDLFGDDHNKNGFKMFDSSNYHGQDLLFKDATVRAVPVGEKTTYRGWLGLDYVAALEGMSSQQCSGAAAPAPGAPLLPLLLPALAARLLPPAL
B4: N-chimaerin (Homo sapiens), P15882 (parent)
chain: MALTLFDTDEYRPPVWKSYLYQLQQEAPHPRRITCTCEVENRPKYYGREFHGMISREAADQLLIVAEGSYLIRESQRQPGTYTLALRFGSQTRNFRLYYDGKHFVGEKRFESIHDLVTDGLITLYIETKAAEYIAKMTINPIYEHVGYTTLNREPAYKKHMPVLKETHDERDSTGQDGVSEKRLTSLVRRATLKENEQIPKYEKIHNFKVHTFRGPHWCEYCANFMWGLIAQGVKCADCGLNVHKQCSKMVPNDCKPDLKHVKKVYSCDLTTLVKAHTTKRPMVVDMCIREIESRGLNSEGLYRVSGFSDLIEDVKMAFDRDGEKADISVNMYEDINIITGALKLYFRDLPIPLITYDAYPKFIESAKIMDPDEQLETLHEALKLLPPAHCETLRYLMAHLKRVTLHEKENLMNAENLGIVFGPTLMRSPELDAMAALNDIRYQRLVVELLIKNEDILF
B5: DCC-interacting protein 13-beta (Homo sapiens), Q8NEU8 (parent)
chain: MPAVDKLLLEEALQDSPQTRSLLSVFEEDAGTLTDYTNQLLQAMQRVYGAQNEMCLATQQLSKQLLAYEKQNFALGKGDEEVISTLHYFSKVVDELNLLHTELAKQLADTMVLPIIQFREKDLTEVSTLKDLFGLASNEHDLSMAKYSRLPKKKENEKVKTEVGKEVAAARRKQHLSSLQYYCALNALQYRKQMAMMEPMIGFAHGQINFFKKGAEMFSKRMDSFLSSVADMVQSIQVELEAEAEKMRVSQQELLSVDESVYTPDSDVAAPQINRNLIQKAGYLNLRNKTGLVTTTWERLYFFTQGGNLMCQPRGAVAGGLIQDLDNCSVMAVDCEDRRYCFQITTPNGKSGIILQAESRKENEEWICAINNISRQIYLTDNPEAVAIKLNQTALQAVTPITSFGKKQESSCPSQNLKNSEMENENDKIVPKATASLPEAEELIAPGTPIQFDIVLPATEFLDQNRGSRRTNPFGETEDESFPEAEDSLLQQMFIVRFLGSMAVKTDSTTEVIYEAMRQVLAARAIHNIFRMTESHLMVTSQSLRLIDPQTQVSRANFELTSVTQFAAHQENKRLVGFVIRVPESTGEESLSTYIFESNSEGEKICYAINLGKEIIEVQKDPEALAQLMLSIPLTNDGKYVLLNDQPDDDDGNPNEHRGAESEA
partner: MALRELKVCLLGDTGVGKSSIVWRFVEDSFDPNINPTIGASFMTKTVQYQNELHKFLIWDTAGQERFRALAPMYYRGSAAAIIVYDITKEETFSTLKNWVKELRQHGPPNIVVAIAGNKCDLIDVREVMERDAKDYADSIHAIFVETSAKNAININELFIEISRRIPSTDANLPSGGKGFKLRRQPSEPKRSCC
B6: Ligand of Numb protein X 2 (Homo sapiens), Q8N448 (parent)
chain: MGTTSDEMVSVEQTSSSSLNPLCFECGQQHWTRENHLYNYQNEVDDDLVCHICLQPLLQPLDTPCGHTFCYKCLRNFLQEKDFCPLDRKRLHFKLCKKSSILVHKLLDKLLVLCPFSSVCKDVMQRCDLEAHLKNRCPGASHRRVALERRKTSRTQAEIENENGPTLLDPAGTLSPEADCLGTGAVPVERHLTSASLSTWSEEPGLDNPAFEESAGADTTQQPLSLPEGEITTIEIHRSNPYIQLGISIVGGNETPLINIVIQEVYRDGVIARDGRLLAGDQILQVNNYNISNVSHNYARAVLSQPCNTLHLTVLRERRFGNRAHNHSDSNSPREEIFQVALHKRDSGEQLGIKLVRRTDEPGVFILDLLEGGLAAQDGRLSSNDRVLAINGHDLKYGTPELAAQIIQASGERVNLTIARPGKPQPGNTIREAGNHSSSSQHHTPPPYYSRPSSHKDLTQCVTCQEKHITVKKEPHESLGMTVAGGRGSKSGELPIFVTSVPPHGCLARDGRIKRGDVLLNINGIDLTNLSHSEAVAMLKASAASPAVALKALEVQIVEEATQNAEEQPSTFSENEYDASWSPSWVMWLGLPSTLHSCHDIVLRRSYLGSWGFSIVGGYEENHTNQPFFIKTIVLGTPAYYDGRLKCGDMIVAVNGLSTVGMSHSALVPMLKEQRNKVTLTVICWPGSLV
B7: Isoform 1 of Cell division control protein 45 homolog (Homo sapiens), O75419-1 (parent)
chain: MFVSDFRKEFYEVVQSQRVLLFVASDVDALCACKILQALFQCDHVQYTLVPVSGWQELETAFLEHKEQFHYFILINCGANVDLLDILQPDEDTIFFVCDTHRPVNVVNVYNDTQIKLLIKQDDDLEVPAYEDIFRDEEEDEEHSGNDSDGSEPSEKRTRLEEEIVEQTMRRRQRREWEARRRDILFDYEQYEYHGTSSAMVMFELAWMLSKDLNDMLWWAIVGLTDQWVQDKITQMKYVTDVGVLQRHVSRHNHRNEDEENTLSVDCTRISFEYDLRLVLYQHWSLHDSLCNTSYTAARFKLWSVHGQKRLQEFLADMGLPLKQVKQKFQAMDISLKENLREMIEESANKFGMKDMRVQTFSIHFGFKHKFLASDVVFATMSLMESPEKDGSGTDHFIQALDSLSRSNLDKLYHGLELAKKQLRATQQTIASCLCTNLVISQGPFLYCSLMEGTPDVMLFSRPASLSLLSKHLLKSFVCSTKNRRCKLLPLVMAAPLSMEHGTVTVVGIPPETDSSDRKNFFGRAFEKAAESTSSRMLHNHFDLSVIELKAEDRSKFLDALISLLS
partner: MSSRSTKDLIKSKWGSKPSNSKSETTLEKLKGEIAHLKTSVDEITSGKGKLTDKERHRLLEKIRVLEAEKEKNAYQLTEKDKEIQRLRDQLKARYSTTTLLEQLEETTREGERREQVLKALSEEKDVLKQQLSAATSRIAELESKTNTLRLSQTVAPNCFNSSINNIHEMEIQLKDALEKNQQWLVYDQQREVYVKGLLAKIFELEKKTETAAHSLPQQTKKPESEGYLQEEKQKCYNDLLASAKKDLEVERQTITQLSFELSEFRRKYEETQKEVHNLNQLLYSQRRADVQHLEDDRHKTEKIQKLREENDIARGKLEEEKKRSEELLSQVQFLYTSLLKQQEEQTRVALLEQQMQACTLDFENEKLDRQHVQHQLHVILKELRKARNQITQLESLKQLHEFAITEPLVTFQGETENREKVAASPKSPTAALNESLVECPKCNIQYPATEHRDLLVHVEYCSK

Variants of: B1
Details: with tifa_human TIFA

Variant	effect of a mutation on the interaction
R230C	with no effect

Variants of: B2
Details: with ccd92_human CCDC92, Q53HC0

Variant	effect of a mutation on the interaction
A37S	with no effect
N95K	with no effect

Variants of: B3
Details: with trfm_human MELTF

Variant	effect of a mutation on the interaction
R74Q	with no effect
A115T	with no effect

Variants of: B4
Details: with nck2_human NCK2, O43639

Variant	effect of a mutation on the interaction
D115N	with no effect

Variants of: B5
Details: with rb22a_human RAB22A

Variant	effect of a mutation on the interaction
K70R	with no effect

Variants of: B6
Details: with lrc8e_human LRRC8E

Variant	effect of a mutation on the interaction
S198P	with no effect

Variants of: B6
Details: with atpb_human ATP5F1B

Variant	effect of a mutation on the interaction
S198P	with no effect

Variants of: B6
Details: with ptcd3_human PTCD3, Q96EY7

Variant	effect of a mutation on the interaction
S198P	with no effect

Variants of: B6
Details: with tbb5_human TUBB

Variant	effect of a mutation on the interaction
V145I	with no effect
T183I	with no effect

Variants of: B6
Details: with mk09_human MAPK9, P45984

Variant	effect of a mutation on the interaction
V145I	with no effect
T183I	with no effect
S141A	with no effect
Y266C	with no effect

Variants of: B6
Details: with at2l2_human PHYKPL

Variant	effect of a mutation on the interaction
V145I	with no effect
T183I	with no effect

Variants of: B6
Details: with ip6k2_human IP6K2, Q9UHH9

Variant	effect of a mutation on the interaction
V145I	with no effect
T183I	with no effect

Variants of: B6
Details: with optn_human OPTN

Variant	effect of a mutation on the interaction
V145I	with no effect
T183I	with no effect
S141A	with no effect
Y266C	disrupting interaction strength

Variants of: B7
Details: with cep55_human CEP55, Q53EZ4

Variant	effect of a mutation on the interaction
G150E	with no effect
